Results on one protein are retold here after PMC7116351 (Protein expression and purification, 2019).

This data set deals with the molecule itself. In words: SEC. In general terms: In gel filtration, larger molecules generally elute earlier.

B1: MgtE Mg2+ channel from Thermus thermophilus (wild type) (natural protein, UniProt Q5SMG8 1-450, looked up)
chain: MEEKLAVSLQEALQEGDTRALREVLEEIHPQDLLALWDELKGEHRYVVLTLLPKAKAAEVLSHLSPEEQAEYLKTLPPWRLREILEELSLDDLADALQAVRKEDPAYFQRLKDLLDPRTRAEVEALARYEEDEAGGLMTPEYVAVREGMTVEEVLRFLRRAAPDAETIYYIYVVDEKGRLKGVLSLRDLIVADPRTRVAEIMNPKVVYVRTDTDQEEVARLMADYDFTVLPVVDEEGRLVGIVTVDDVLDVLEAEATEDIHKLGAVDVPDLVYSEAGPVALWLARVRWLVILILTGMVTSSILQGFESVLEAVTALAFYVPVLLGTGGNTGNQSATLIIRALATRDLDLRDWRRVFLKEMGVGLLLGLTLSFLLVGKVYWDGHPLLLPVVGVSLVLIVFFANLVGAMLPFLLRRLGVDPALVSNPLVATLSDVTGLLIYLSVARLLLEAV
For B1, the “stoichiometry N” value amounted to 2.

By stoichiometry N is commonly meant the number of molecules, sites or subunits per partner or assembly.
